Experimental data published in patent US20240360228A1 (BIOLEGEND, published 2024).
Where a chain is given by its changes, count along the chain named.

B1: Commercial 433H anti-human CCR8 antibody (antibody, from another filing, V domains shown)
VH: EVQLVETGGGLVQPKGSLRLSCAASGFPFNTFAMNWVRQAPGKGLEWLARIRSKSNNYATYYADSVKDRFTISRDDSRRMLYLLMNNVKFEDTAIYYCVRGKENNYGYAMDYWGQGTSVTVSS
VL: DIVMTQAAPSVPVTPGESVSISCRSSQSLLHSNGNTYLYWFLQRPGQSPQLLIYRMSNLASGVPDRFSGSGSGTAFTLRISRVEAEDVGVYYCMQHLEYPFTFGIGTKLELKR
B2: anti-CCR8 monoclonal antibody AB11 (antibody, V domains shown)
VH: EVQLVESGGGLVQPKGSLKLSCAASGFAFNTYAMNWVRQAPGKGLEWIARLRSKSNFYATYYADSVKDRFTISRDDSQSMLYLQMNNLKTEDTAVYYCVRGRELGPSYAMDYWGQGTSVTVSS
VL: DIVMTQAAPSVPVTPGESVSISCRSSKSLLHSNGNTYLYWFLQRPGQSPQLLIYRMSNLASGVPDRFSGSGSGTAFTLRISRVEAEDVGVYYCMQHLEYPYTFGGGTKLEIK
notes: Hybridoma monoclonal; also called antibody 11; clone 11
B3: anti-CCR8 monoclonal antibody AB13 (antibody, V domains shown)
VH: EVQLVETGGGLVQPKGSLKLSCAASGFTFNAYAMNWVRQAPGKGLEWVARIRTKSNNYATYYADSVKDRFTISRDDSQTMLYLQMNNLKTEDTAMYYCVRDRATVTTGRAMDYWGQGTSVTVSS
VL: B2 VL with V11L, P45A, Y101F, G105S
notes: Hybridoma monoclonal; also called antibody 13; clone 13

Experiments:
[1] = molecular target: human chemokine (C-C motif) receptor 8 (CCR8) (human) (UniProt P51685); assay: flow cytometry, human PBMC, CD3+ gate; % cells stained by PE-L263G8 after isotype control block
human chemokine (C-C motif) receptor 8 (CCR8) (human), sequence (P51685 whole entry): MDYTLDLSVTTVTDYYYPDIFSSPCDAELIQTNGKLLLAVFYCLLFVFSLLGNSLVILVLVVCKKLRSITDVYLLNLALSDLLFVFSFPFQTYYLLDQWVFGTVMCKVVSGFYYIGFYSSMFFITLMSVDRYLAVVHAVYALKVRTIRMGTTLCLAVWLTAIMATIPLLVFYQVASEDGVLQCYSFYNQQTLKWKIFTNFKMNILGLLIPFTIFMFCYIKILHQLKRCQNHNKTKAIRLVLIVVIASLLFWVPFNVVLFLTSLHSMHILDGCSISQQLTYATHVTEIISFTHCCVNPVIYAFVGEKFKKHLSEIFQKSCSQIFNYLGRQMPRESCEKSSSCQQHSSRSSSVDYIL

[2] = molecular target: human chemokine (C-C motif) receptor 8 (CCR8) (human) (UniProt P51685); assay: flow cytometry, human PBMC, CD3+ gate; % cells stained by PE-433H after isotype control block
[3] = molecular target: T1, human chemokine (C-C motif) receptor 8 (CCR8) (human, UniProt P51685 1-355); assay: flow cytometry blocking, human PBMC, CD3+ gate; competitor PE-AB5
T1 construct: also called hCCR8
T1 sequence (P51685 whole entry): as above
Protocol: (§1) For blocking studies, 100 μL of the cell suspension were incubated with 10 μg purified isotype control, AB1, AB2, AB3, AB4, AB5, AB8, AB9, AB10, AB11, AB12, AB13, AB14, AB15, and Commercial ABI antibodies, or isotype control, as blocking agents.
(§2) After incubation with the blocking agent, the cells were incubated with 0.25 μg of the indicated PE-conjugated antibody plus anti-human CD4 APC or anti-human CD3 for another 15 minutes in the dark and then washed 2 times with Cell Staining Buffer, and acquired in a FACSCanto II flow cytometer (BD Biosciences); the data was analyzed using FCS Express (De Novo Software); MFI correspond to the CCR8+ CD4+ lymphocytes or CCR8+ CD3+ lymphocytes.
(§3) Percentage original MFI was calculated by dividing the MFI of samples blocked with AB1, AB2, AB3, AB4, AB5, AB6, AB7, AB8, AB9, AB10, AB11, AB12, AB13, AB14, AB15, and Commercial ABI antibodies, by the MFI of samples blocked with the corresponding isotype control. This value was subtracted from 100 to get a blocking percentage. The formula is shown below: […]

[4] = molecular target: T1, human chemokine (C-C motif) receptor 8 …; assay: flow cytometry blocking, human PBMC, CD3+ gate; competitor PE-AB6
Protocol: as §1, §2, §3

[5] = molecular target: T1, human chemokine (C-C motif) receptor 8 …; assay: flow cytometry blocking, human PBMC, CD3+ gate; competitor PE-AB7
Protocol: as §1, §2, §3

[6] = molecular target: T1, human chemokine (C-C motif) receptor 8 …; assay: flow cytometry blocking, human PBMC, CD3+ gate; competitor PE-AB8
Protocol: as §1, §2, §3

[7] = molecular target: T1, human chemokine (C-C motif) receptor 8 …; assay: flow cytometry blocking, human PBMC, CD3+ gate; competitor PE-433H
[8] = molecular target: T1, human chemokine (C-C motif) receptor 8 …; assay: flow cytometry blocking, human PBMC, CD3+ gate; competitor PE-AB10
Protocol: as §1, §2, §3

[9] = molecular target: T1, human chemokine (C-C motif) receptor 8 …; assay: flow cytometry blocking, human PBMC, CD3+ gate; competitor PE-AB11
Protocol: as §1, §2, §3

[10] = molecular target: T1, human chemokine (C-C motif) receptor 8 …; assay: flow cytometry blocking, human PBMC, CD3+ gate; competitor PE-AB12
Protocol: as §1, §2, §3

[11] = molecular target: T1, human chemokine (C-C motif) receptor 8 …; assay: flow cytometry blocking, human PBMC, CD3+ gate; competitor PE-AB13
Protocol: as §1, §2, §3

[12] = molecular target: T1, human chemokine (C-C motif) receptor 8 …; assay: flow cytometry blocking, human PBMC, CD3+ gate; competitor PE-AB14
Protocol: as §1, §2, §3

[13] = molecular target: T1, human chemokine (C-C motif) receptor 8 …; assay: flow cytometry blocking, human PBMC, CD3+ gate; competitor PE-AB15
Protocol: as §1, §2, §3

[14] = molecular target: T1, human chemokine (C-C motif) receptor 8 …; assay: flow cytometry blocking, human PBMC, CD3+ gate; competitor PE-L263G8
[15] = molecular target: T1, human chemokine (C-C motif) receptor 8 …; assay: flow cytometry blocking, human PBMC, CD3+ gate; % cells stained by competitor PE-AB5 after block
Protocol: as §1, §2

[16] = molecular target: T1, human chemokine (C-C motif) receptor 8 …; assay: flow cytometry blocking, human PBMC, CD3+ gate; % cells stained by competitor PE-AB6 after block
Protocol: as §1, §2

[17] = molecular target: T1, human chemokine (C-C motif) receptor 8 …; assay: flow cytometry blocking, human PBMC, CD3+ gate; % cells stained by competitor PE-AB7 after block
Protocol: as §1, §2

[18] = molecular target: T1, human chemokine (C-C motif) receptor 8 …; assay: flow cytometry blocking, human PBMC, CD3+ gate; % cells stained by competitor PE-AB8 after block
Protocol: as §1, §2

[19] = molecular target: T1, human chemokine (C-C motif) receptor 8 …; assay: flow cytometry blocking, human PBMC, CD3+ gate; % cells stained by competitor PE-433H after block
Protocol: as §1, §2

[20] = molecular target: T1, human chemokine (C-C motif) receptor 8 …; assay: flow cytometry blocking, human PBMC, CD3+ gate; % cells stained by competitor PE-AB10 after block
Protocol: as §1, §2

[21] = molecular target: T1, human chemokine (C-C motif) receptor 8 …; assay: flow cytometry blocking, human PBMC, CD3+ gate; % cells stained by competitor PE-AB11 after block
Protocol: as §1, §2

[22] = molecular target: T1, human chemokine (C-C motif) receptor 8 …; assay: flow cytometry blocking, human PBMC, CD3+ gate; % cells stained by competitor PE-AB12 after block
Protocol: as §1, §2

[23] = molecular target: T1, human chemokine (C-C motif) receptor 8 …; assay: flow cytometry blocking, human PBMC, CD3+ gate; % cells stained by competitor PE-AB13 after block
Protocol: as §1, §2

[24] = molecular target: T1, human chemokine (C-C motif) receptor 8 …; assay: flow cytometry blocking, human PBMC, CD3+ gate; % cells stained by competitor PE-AB14 after block
Protocol: as §1, §2

[25] = molecular target: T1, human chemokine (C-C motif) receptor 8 …; assay: flow cytometry blocking, human PBMC, CD3+ gate; % cells stained by competitor PE-AB15 after block
Protocol: as §1, §2

[26] = molecular target: T1, human chemokine (C-C motif) receptor 8 …; assay: flow cytometry blocking, human PBMC, CD3+ gate; % cells stained by competitor PE-L263G8 after block
Protocol: as §1, §2

Row | Molecule | % Blocking [3] | % Blocking [4] | % Blocking [5] | % Blocking [6] | % Blocking [7] | % Blocking [8] | % Blocking [9] | % Blocking [10] | % Blocking [11] | % Blocking [12] | % Blocking [13] | % Blocking [14] | % Positive cells [15] | % Positive cells [16] | % Positive cells [17] | % Positive cells [18] | % Positive cells [19] | % Positive cells [20] | % Positive cells [21] | % Positive cells [22] | further results
1 | Commercial L263G8 anti-human CCR8 antibody |  |  |  |  |  |  |  |  |  |  |  |  |  |  |  |  |  |  |  |  | % Positive cells [1]: 5.87%
2 | B1 |  |  |  |  |  |  |  |  |  |  |  |  |  |  |  |  |  |  |  |  | % Positive cells [2]: 7.07%
3 | B2 | -2.41% | 2.9% | 2.53% | -4.02% | 47.2% | 96.5% | 98.7% | 97.7% | 94.1% | 98.3% | 97.6% | 92.7% | 8.49% | 8.04% | 8.87% | 8.8% | 3.73% | 0.21% | 0.09% | 0.17% | % Positive cells [23]: 0.39%; % Positive cells [24]: 0.12%; % Positive cells [25]: 0.16%; % Positive cells [26]: 0.43%
4 | B3 | -1.21% | -4.11% | 30.3% | 25.3% | 6.93% | -2.65% | 0.85% | 20.3% | 34.7% | 39.4% | 46.5% | 20.3% | 8.39% | 8.62% | 6.34% | 6.32% | 6.58% | 6.19% | 6.96% | 6% | % Positive cells [23]: 4.34%; % Positive cells [24]: 4.32%; % Positive cells [25]: 3.52%; % Positive cells [26]: 4.68%
